Experimental data reported in the nanobody polyreactivity screen of Harvey et al. (2022).

test: yeast display, Sf9 membrane polyspecificity reagent, FACS + sequencing; frameworks hold sequencing errors
Summary of the method: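 Using colony PCR, genes from sorted yeast display clones were amplified, then sequenced on MiSeq at 2 × 250 and filtered by CDR length. The clones had been stained with 10% biotinylated, detergent-solubilized Sf9 membrane reagent for 1 hour at 4 °C and sorted by FACS into low and high (top ~1%) gates on anti-HA and streptavidin fluorescence. Polyreactivity labels come from the gate of origin.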

Sequence	polyreactivity (PSR sort gate)
QVQLVESGGGLVQAGGSLRLSCAASGSTFSLYTMGWYRQAPGKERELVAAITWTGGSTYYADSVKGRFTISRDNAKNTVYLQMNSLKPEDTAVYYCAAVSRLTGSRESQLIRSRMYYWGQGTQVTVSS	high polyreactivity
QVQLVESGGGLVQAGGSLRLSCAASGSTFSNNTMGWYRQAPGKETELVATIDFNGGSTYYADSVKGRFTISRDNAKNTVYLQMNSLKPEDTAGYYCAAAEYLYTLPYGYWGQGTQVTVSS	low polyreactivity
QVQLVESGGGLVQAGGSLRLSCAASGSTFSNNVMGGYIQAPGKERELVAAISSRGGSTYYADSVKGRFTISRDNAKNTVYLQMNSLKPEDTAVYYCAADQWYAFILGYPMVYWGQGTQVTVSS	high polyreactivity
QVQLVESGGGLVQAGGSLRLSCAASGSTFSNYAMGWYRQAPGKERELVASISNGGSTNYADSVKGRFTISRDNAKNTVYLQMNSLKPEDTAVYNCNAESKAKYDYWGQGTQVTVSS	low polyreactivity
QVQLVESGGGLVQAGGSLRLSCAASGSTFSPYAMGWYRQAPGKEMDFVAAITSSGGSTYYADSVKGRFTISRDNAKNTVYLQMNSLKPEDTALYYFAAEGYYTSTYDLFDYYYWGQGTQVTVSS	low polyreactivity
QVQLVESGGGLVQAGGSLRLSCAASGSTFSQNAMGWYRQAPGKERELVDAITSGGITYYADSVKGRFTISRDNAKNTVYLQMNSLKPEDTAVYYCNADAIVSPYRLWTVTYYYWGQGTQVTVSS	low polyreactivity
QVQLVESGGGLVQAGGSLRLSCAASGSTFSRNAMGWYRQAPGKEREFVAAISTSGDSTYYADSVKGRFTISRDNAKNTVYLQMNSLKPEDTAVYYCADDGFWIAYQEGDYWGQGTQVTVSS	low polyreactivity
QVQLVESGGGLVQAGGSLRLSCAASGSTFSRNAMGWYRQAPGKERELVAAISRRGGSTYYADSVKGRFTISRDNAKNTVYLQMNSLKPEDTAVYYCNRDSSYKNNYDYWGQGTQVTVSS	high polyreactivity
QVQLVESGGGLVQAGGSLRLSCAASGSTFSRYAMGWSRQAPGKERELVAAISSSGGSTYYADSVKGRFTISRDNAKNTVYLQMNSLKPEDTAVYYCAARIWRTRRYDYWGQGTQVTVSS	high polyreactivity
QVQLVESGGGLVQAGGSLRLSCAASGSTFSRYAMGWSRQAPGKERELVAAISWSGGSTYYAVSVKGRFTISRDNAKNTVYLQMISLKPEDTAVYYCAAYTYSFRANHDYWGQGTQVTVSS	high polyreactivity
QVQLVESGGGLVQAGGSLRLSCAASGSTFSRYAMGWYRQAPGKERELVAAISGSGGSTSYADSVKGRFTISRDNAKNTVYLQMNSLKPEDTAVYYCAAYYLWYSRAFDYWGQGTQVTVSS	high polyreactivity
QVQLVESGGGLVQAGGSLRLSCAASGSTFSRYAMGWYRQAPGKERELVAAISSSGGSTYYADSVKGRFTISRDTAKNTVYLQMNSLKPEDTAVYYCAVSHKYYGRRDYWGQGTQVTVSS	high polyreactivity
QVQLVESGGGLVQAGGSLRLSCAASGSTFSRYAMGWYRQAPGKERELVAAISWGGNTYYADSVKGRFTISRDNAKNTVYLQMNSLKPEDTAVYYCNRYSKLYNTMDYWGQGTQVTVSS	high polyreactivity
QVQLVESGGGLVQAGGSLRLSCAASGSTFSRYAMGWYRQAPGKERELVAAISYSGDSTYYADSVKGRFTISRDYAKNTVYLQMNSLKPEDTAVYYCNVYSHYRGYYWGQGTQVTVSS	high polyreactivity
QVQLVESGGGLVQAGGSLRLSCAASGSTFSRYAMGWYRQAPGKERELVAAITASGGSTYYADSVKGRFTISRDNAKNTVYLQMNRLKPEDTAVYYCAASYQVRYDYWGQGTQVTVSS	high polyreactivity
QVQLVESGGGLVQAGGSLRLSCAASGSTFSRYAMGWYRQAPGKERELVAAITSSGGSSYYADSVKGRFTISRDNAKNTVYLQMNSLKPEDTAVYYCAASYQVRYDYWGQGTQVTVSS	high polyreactivity
QVQLVESGGGLVQAGGSLRLSCAASGSTFSRYTMGWYRQAPGKERELVAAISKSGGSTYYADSVKGRFTISRDNAKNTVYLQMNSLKPEDTAVYYCAALVRAGTSLDYDYWGQGTEVTVSS	high polyreactivity
QVQLVESGGGLVQAGGSLRLSCAASGSTFSSNAMGWYRQAPGKERELVAAINRRGGTYYADSVKGRFTISRDNAKNTVYLQMNSLKPEDTAVYYCAAASPYHEYDYWGQGTQVTVSS	low polyreactivity
QVQLVESGGGLVQAGGSLRLSCAASGSTFSSNGMGWYRPAPGKERELVAAITSGGSTNYADSVKGRFTISRDNAKNTVYLQMNSLKPEDTAVYYCNAERTAYGGGDYWGQGTQVTVSS	low polyreactivity
QVQLVESGGGLVQAGGSLRLSCAASGSTFSSNPMGWYRQAPGKERELVAAISVNGGSTNYADSVKGRFTISRDNAKNTVYLQMNSLKPVDTAVYYCAAEPAKVAFYRGDYWGQGTQVTVSS	low polyreactivity
QVQLVESGGGLVQAGGSLRLSCAASGSTFSSYAMGRYRQAPGKERELVAVITRGTSTNYADSVKGRFTISRDNAKNTVYLQMNSLKPEDTAVYYCNARRGSRRFGYWGQGTQVNVSS	high polyreactivity
QVQLVESGGGLVQAGGSLRLSCAASGSTFSSYAMGWYRQAPGKERELVAAISRRGGRTYYADSVKGRFTISRDNAKNTVYLQMNRLKPEDTAVYYCAADWGVRDEYYYWGQGTQVTVSS	high polyreactivity

Sequence	polyreactivity (PSR sort gate)
QVQLVESGGGLVQAGGSLRLSCAASGSTFSSYAMGWYRQAPGKERELVAATYYADSVKGRFTISRDNAKNTVYLQMNSLKPEDTAVYYCNADNDYQGGKEYDYWGQGTQVTVSS	low polyreactivity
QVQLVESGGGLVQAGGSLRLSCAASGSTFSSYVMGWYRKAPVKERELVAAISSIGGSTYFADSVKGRFTISRDNAKNTVYLQMNSLKPEDTAVYFCAAEPPGSTYEGGYWGQGTQVTVSS	low polyreactivity
QVQLVESGGGLVQAGGSLRLSCAASGSTFSTNALGWYREAPGKELELVDDISSSSGRTYYADSVKGRFTISRDNAKNTVYLQMNSLKPEDTAVYYCAAANQGYRSGRKGVQRFDYWGQGTQVTVSS	high polyreactivity
QVQLVESGGGLVQAGGSLRLSCAASGSTFSTNAMGWFIQAPGKARELVAGISRSGGRTYYADSVKGRFTISRDNAKTTVYLQMNSLKPEETAVYYSNAVRRFASPSPHYYWGQGTQVTLSS	high polyreactivity
QVQLVESGGGLVQAGGSLRLSCAASGSTFSTNAMGWYRPAPAKEREFGAAITWSGDSTDYADSVKGRFTISRDNAKNTVYLHMNSLKPEDTAVYYCSAGPFLESYRGYSEMDYWGQGTQVTVSS	low polyreactivity
QVQLVESGGGLVQAGGSLRLSCAASGSTFSTNAMGWYRQAPGKERELVAAISRRGGNTYYADSVKGRFTISRDNAKNTVYLQMNSLKPEDTAGYYCAAKYYRFGDPDRYDYWGQGTQVTVSS	high polyreactivity
QVQLVESGGGLVQAGGSLRLSCAASGSTFSTYAMGWYRQAPGKERELVAAIRSGGSTYYADSVKGRFTISRDNAKNTVYLQMNSLKPEDTAVYYCAAKPRNYSYRYYYWGQGTLVTVSS	high polyreactivity
QVQLVESGGGLVQAGGSLRLSCAASGSTFSTYAMGWYRQAPGKERELVAAITRRGGRTYYADSVKGRFTISRDNAKNTVYLQMNSLKPEDTAVYYCAKTSPVSDGYYWGQGTQVTVSS	high polyreactivity
QVQLVESGGGLVQAGGSLRLSCAASGSTFSVYAMGWYRQAPGKERELVATISWGGGITYYADSVKGRFTISRDNAKNTVYLQMNSLKPEDTAVYYCAKELYSWLPGYRCEGTMDYWGQGTQVTVSS	high polyreactivity
QVQLVESGGGLVQAGGSLRLSCAASGSTFSVYAMGWYRQAPGKERELVATISWGGGITYYADSVKGRFTISRDNAKNTVYLQMNSLKPEDTAVYYCHSSKYGYWGQGTQVTVSS	high polyreactivity
QVQLVESGGGLVQAGGSLRLSCAASGSTFSWYAMGWYRQAPGKERELVASISFSGGDTSYADSVKGRFTISRDNAKNTVYLQMNSLKPEDTEVYYCGKEYKYETDTIFDYWGQGTQVTVSS	low polyreactivity
QVQLVESGGGLVQAGGSLRLSCAASGSTFSWYTMGWYRQAPGKERELVAAISWSGGRTYYADSVKGRFTISRDNAKNTVYLQMNSLKPEDTAVYYCAAYDYWYSLGDYQFYYSGQGTQVTVSS	low polyreactivity
QVQLVESGGGLVQAGGSLRLSCAASGSTFSYAMGWYRQAPGKERELVAAITIGGRTSYADSVKGRFTISRDNAKNTVYLQMNSLKPEDTAVYYCAAEGYYPVYYYVYYGYDYWGQGTQVTVSS	low polyreactivity
QVQLVESGGGLVQAGGSLRLSCAASGSTFSYNAMGWYRQAPGKERELVAAIDRSVSTNYADSVKGRFTISRDNAKNTVYLQMNSLKTEDTAVYYCNARHPTDDIVIYDYWGQGTQVTVSS	low polyreactivity
QVQLVESGGGLVQAGGSLRLSCAASGSTFSYNAMGWYRQAPGKERELVAAISRRGGGTYYADSVKGRFTISRDKAKNTVSLHMNSLKPVDTAVYYCNADIWYKTYDYWGQGTQVTVSS	low polyreactivity
QVQLVESGGGLVQAGGSLRLSCAASGSTFSYNAMGWYRQAPGKERELVAAITSTGRTYYADSVKGRFTITRDNAKNTVYLQMISLKPEDTAGYYCNKVYYRFYSADFGYGWYLRYDYWGQGTQVTVSS	high polyreactivity
QVQLVESGGGLVQAGGSLRLSCAASGSTFSYNMGWYRQAPGKERELVAAISGSGGSTYADSVKGRFTISRDNAKNTVYLQMNSLKPEDTAVYYCATVRYWVHEYGYWGQGTQVTVSS	high polyreactivity
QVQLVESGGGLVQAGGSLRLSCAASGSTFSYYAMGWYRQAPGKERELVAAITRGGSTYYADSVKGRFTISRDNAKNTVYLQMNSLKPEDTAVYYCATRTWRWGYLHYDYWGQGTQVTVSS	low polyreactivity
QVQLVESGGGLVQAGGSLRLSCAASGSTFSYYAMGWYRQAPGKERELVASISSGGSTNYADSVKGRFTISRANAKNTVYLQMNSLKPEDSAVYYCKADSWTVNRRYYYYRYEYWGQGSQVTVSS	low polyreactivity
QVQLVESGGGLVQAGGSLRLSCAASGSTFSYYAMVWYRQAPGKERELVADISSGGSTNYADSVKGRFTISRDNAKNTVYLQMNSLKPEDTAVYYCNRRYSYYDGFDYWGQGTQVTVSS	low polyreactivity
QVQLVESGGGLVQAGGSLRLSCAASGSTFSYYTMGWSRQAPGKERELVAAISRGGSTNYADSVKGRFTISRDNAKNTVYLQMNSLKPEDTAVYYCAAEPGRTKRYKVRMDYWGQGTQVTVSS	high polyreactivity
